# The nanobody polyreactivity screen of Harvey et al. (2022)
# Test: yeast display, Sf9 membrane polyspecificity reagent, FACS + sequencing; frameworks hold sequencing errors
# Outline: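 Sorting gates, low and high (top ~1%), were placed on anti-HA fluorescence to track expression and on streptavidin fluorescence to track reagent binding. A clone's polyreactivity label is taken from the gate it came out of. The reagent was 10% biotinylated, detergent-solubilized Sf9 membrane, applied for 1 hour at 4 °C to galactose-induced yeast display cells.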
row,Sequence,polyreactivity (PSR sort gate)
1,QVQLVESGGGLVQAGGSLRLSCAASGFIFSRNVMGWYRQAPGKERELVAAISRSGGSTYYADSVKGRFTISRDNAKNTVYLQMNSLKPEDTAVYYCAASRINYVYLLKGDYWGQGTQVTVSS,high polyreactivity
2,QVQLVESGGGLVQAGGSLRLSCAASGFIFSRYAMGWARQAPGKERELVAAIRFSGSMTYYADSVKGRFTISRDTAKNTVYLQMNSLKPEDTAVYYCAAALTYFKRVYYWGQGTQVTVSS,high polyreactivity
3,QVQLVESGGGLVQAGGSLRLSCAASGFIFSRYAMGWYRQAPGKERELVAYITRRGGRTFYADSVKGRFTISRDNAKNTVYLQMNSLKPEDTAVYYCGADAYGLTLFYVFSYDYWGQGTQVTVSS,high polyreactivity
4,QVQLVESGGGLVQAGGSLRLSCAASGFIFSRYTMGWYRQAPGKERELVAAISKRGGSTYYADSVKGRFTISRDNAKNTVYLQMNSLKPEDTAVYYCAADRLPSGSLVEYWGQGTQVTVSS,high polyreactivity
5,QVQLVESGGGLVQAGGSLRLSCAASGFIFSRYTMGWYRQAPGKERELVAAITWSGGSTYYADSVKGRFTISRDNAKNTVYLQMNSLKPVDTAVYYCAAARISVVQGDYWGQGTQVTVSS,high polyreactivity
6,QVQLVESGGGLVQAGGSLRLSCAASGFIFSSNAMGWYRQAPGKERELVARITWSDGSTYYADSVKGRFTISRDNAKNTVYLQMNSLKPEDTAAYYCAKGRDATHYEYYLYSMDYWGQGTQVTVSS,low polyreactivity
7,QVQLVESGGGLVQAGGSLRLSCAASGFIFSSYAMGWYIQAPGKERELVAAISRSGGRTYYADSVKGRFTISRDNAKNTVYLKMNSLKPEDTAVYYCAAKWLGTAGDDYWGQGTQVTVSS,high polyreactivity
8,QVQLVESGGGLVQAGGSLRLSCAASGFIFSSYAMGWYRQAPGKERELVAAITSRGGSTYYADSVKGRFTISRDNAKNTVYLQMNSLKPEDTAVYYCNAVVTKYAKSRFLYYYWGQGTQVTVSS,high polyreactivity
9,QVQLVESGGGLVQAGGSLRLSCAASGFIFSVYAMGWYRQAPGKERELVAAITGNGVSTYYADSVKGRFTISRDNAKNTVYLQMISLKPEDTAVYSCATYGRRWYSSRRLDYWGQGTQVTVSS,low polyreactivity
10,QVQLVESGGGLVQAGGSLRLSCAASGFIFSYNVMGWYRQAPGKERELVAAISSGGGRTYYADSVKGRFTISRDNAKNTVYLQMNSLKPEDTAVYYCNAYRLSRVQLYYWGQGTQVTVSS,high polyreactivity
11,QVQLVESGGGLVQAGGSLRLSCAASGFIFSYYAMGGYRQAPGKERELVAAITSGGSTNYADSVKGRLTISRDNAKNTFYLQMNSLKPEDTAVYYCAAERGDTAYLKYDYCGQGTQVTVSS,low polyreactivity
12,QVQLVESGGGLVQAGGSLRLSCAASGFIFSYYAMGWYRQAPGKERELVAAISISGGSTYYADSVKGRFTISRDNAKTTVYLQMNSLKPEDTAVYYCNKAPRYPYGGYDYWGQGTQVTVSS,low polyreactivity
13,QVQLVESGGGLVQAGGSLRLSCAASGFIFSYYAMGWYRQAPGKERELVAAISKTGGNTFYADSVKGRFTISRDNAKNTVYLQMNSLKPEDTGVYYCNALRGDWRDMGYWGQGTQVTVSS,high polyreactivity
14,QVQLVESGGGLVQAGGSLRLSCAASGFIFSYYAMGWYRQAPGKERELVAAISRSGGSTYYADSVKGRFTISRDNAKNTVYLQMNSLKPEDTAVYYCAARYWRRYGQGYRYDYWGQGTQVTVSS,high polyreactivity
15,QVQLVESGGGLVQAGGSLRLSCAASGFIFSYYAMGWYRQAPGKERELVAAITWDGGSTYYADSVKGRFTISRDYANNTVYLLLNSLKPEDTAVYYCNAYYYYRRPLEGGYWGQGNQVTVSS,low polyreactivity
16,QVQLVESGGGLVQAGGSLRLSCAASGFIFSYYAMGWYRQAPGKERELVAGITRSGGSTYYADSVKGRFTISRDNAKNTVYLQMNSLKPEDTAVYYCAAGYFYHFSRYTNRYGYWGQGTQVTVSS,high polyreactivity
17,QVQLVESGGGLVQAGGSLRLSCAASGFIFSYYAMGWYRQAPGKEREWVAAISKTGGNTYYADSVKGRFTISRDNAKKTVYLQMNSLKPEDTAVYYCNALRGDWRDMGYCGQGTQVTVSS,high polyreactivity
18,QVQLVESGGGLVQAGGSLRLSCAASGFIFSYYAMVWYRQAPGTERELVAAISSSGSRTYYADSVKGRFTISRDNAKNTVYLQMNSLKPEDTAVYYCAARGAAKYGYWGQGTQVTVSS,high polyreactivity
19,QVQLVESGGGLVQAGGSLRLSCAASGFIFTDNAMGRYRHAPRTERELVAAINLSGTRTYYADSVKGRFTISRDNAKNTVYLQMNSLKPEDTAVYYCNKSEDYTYDYWGQGTQVTVSS,low polyreactivity
20,QVQLVESGGGLVQAGGSLRLSCAASGFIFTDYAMGWYRQAPGKEREFVAAIDWSGGNTYYADSVKGRFTISRDHAKNTVYLQMNRLKPEDTAVYYCNAGDYFVRFVYYWDDERYDYWGQGTQVTVSS,low polyreactivity
21,QVQLVESGGGLVQAGGSLRLSCAASGFIFTFYAMGWYRQAPGKEREFVASIDWGDGSTYYADSVKGRFTISRDNAKNTVYLQMNSLKPEDTAVYYCATDVYFLSSEYWGQGTQVTVSS,low polyreactivity
22,QVQLVESGGGLVQAGGSLRLSCAASGFIFTGNAMGWYRQAPGKERELVAAISKRGGRTYYADSVKGRFTISRDNAKNTVYLQMNSLKPEDTAVYYCAAVGYAYTYAEYYYWGQGTQVTVSS,high polyreactivity

row,Sequence,polyreactivity (PSR sort gate)
1,QVQLVESGGGLVQAGGSLRLSCAASGFIFTGNAMGWYRQAPGKERELVAAITGRGSTYYADSVKGRFTISRDNGKNSVYLQMNSLKPEDTAVYYCAAKRWWQYYWGQGTQVTVSS,high polyreactivity
2,QVQLVESGGGLVQAGGSLRLSCAASGFIFTGYTMGWYRQAPGKERELVARISSGDSTKYADSVKGRFTISRDNAKNNVYLQMNSLKPEDTAVYYCAAYIRNARNGTTYDYWGQGTQVTVSS,high polyreactivity
3,QVQLVESGGGLVQAGGSLRLSCAASGFIFTHYAMGWYRQAPGKERELVAAISRRGGSTYYADSVKGRFTISRDNAKNTVYLQMNSLKPEDTAVYYCAADNYDAWYWDYYWGQGTQVTVSS,high polyreactivity
4,QVQLVESGGGLVQAGGSLRLSCAASGFIFTKYAMGWYRQAPGKERELVAVITSRGTRTYYADSVKGRFTISRDNAKNTVYLQMNSLKPEDTAVYYCAADYQGPYDYWGQGTQVTVSS,high polyreactivity
5,QVQLVESGGGLVQAGGSLRLSCAASGFIFTNVMGWYRQAPGKERELVAAISGRGTSTYYADSVKGRFTISRDNAKNTVYLQMNSLKPEETAVYYCAAASYQSRYWNYYWGQGTQVTVSS,high polyreactivity
6,QVQLVESGGGLVQAGGSLRLSCAASGFIFTPYAMGWYRQAPGKEREFVATITWSGGSTNYADSVKGRFTISRDNAKNTVYLQMNSLKPEDTAVYYCNADTWSPNDYWGQGTQVTVSS,low polyreactivity
7,QVQLVESGGGLVQAGGSLRLSCAASGFIFTPYAMGWYRQAPGKERELVAAISKSGADTFYADSVKGRFTISRDNAKNTVYLQMNSLKPEDTAVYYCAADDYWGYDYWGQGTQVTVSS,high polyreactivity
8,QVQLVESGGGLVQAGGSLRLSCAASGFIFTPYAMGWYRQAPGKERELVAAISWIGGRTYYADSVKGRFTISRDNAKNTVYLQMHSLKPEDTAVYYCNARTHGWPYSRYYYWGQGTQVTVSS,high polyreactivity
9,QVQLVESGGGLVQAGGSLRLSCAASGFIFTQNAMGWYRQAPGKERELVAVIRWNGGSTYYADSVKGRFTISRDNAKNTVYLQMNSLKPEDTEVYYCAAEFLWIVDYWGQGTQVTVSS,low polyreactivity
10,QVQLVESGGGLVQAGGSLRLSCAASGFIFTRNAMGWYRQAPGKERELVAAITSSGGSTYYADSVKGRFTISRDNAKYTVYLQMNCLKPEDTAVYYFAADDIQTYGDDYWGQGTQVTVSS,high polyreactivity
11,QVQLVESGGGLVQAGGSLRLSCAASGFIFTRNVMGWNRQAPGKERELVAAISSGGRTYYADSVKGRFTISRDNAKKTVYFQMISLKPEDTAVYYCNAGNRGVYRYDYWGQGTQVTVSS,high polyreactivity
12,QVQLVESGGGLVQAGGSLRLSCAASGFIFTSNAMGWYRQAPGKERELVAAITKSGGSTYYADSVKGRFTISRDNAKNTVYLQMNSLKPEDTAVYYCATRGVRRYYKTMNYWGQGTQVTVSS,high polyreactivity
13,QVQLVESGGGLVQAGGSLRLSCAASGFIFTSYALGWYRQAPGKEREFFAAISRRGGSTYYADSVKGRFTISRDNAKNTVYLQMNSLKPEDTAVYYCAADPKQHSGYDYWGQGTQVTVSS,high polyreactivity
14,QVQLVESGGGLVQAGGSLRLSCAASGFIFTSYAMGWYRQAPGKERELVAAITDGGSTNYADSVKGRFTISRDNAKNTVYLQMNSLKPEDTAVFYCAADGFKTVLPEYDYWGQGTQVTVSS,low polyreactivity
15,QVQLVESGGGLVQAGGSLRLSCAASGFIFTSYDMGWYRQAPWKEREFVAAISWSGDRTYYADSVKGRFTISRDYAKNTVYLQMNSLKPEDTAVYYCAADRSIRRYYGYDYWGQGTQVTVSS,high polyreactivity
16,QVQLVESGGGLVQAGGSLRLSCAASGFIFTTNAMGWYRQAPGKERELVAAITRSGGSTYADSVKGRFTLSRDNAKNTVYLQMNSLKPEETAVYYCNADGYFWGQGTQVTVSS,low polyreactivity
17,QVQLVESGGGLVQAGGSLRLSCAASGFIFTVNAMGWYRQAPGKERELVAAITQSGGNTSYADSVKGRFTISRDNAKNTVYLQMNSLKPEDTAVYYCNASSDTSRYGVSTYYYWGQGTQVTVSS,low polyreactivity
18,QVQLVESGGGLVQAGGSLRLSCAASGFIFTVNAMGWYRQAPGKERELVAAITQSGGNTSYADSVKGRFTISRDNAKNTVYLQMNSLTPEDTAVYYCNASSDTSRYGVSTYYYWGQGTQVTVSS,low polyreactivity
19,QVQLVESGGGLVQAGGSLRLSCAASGFIFTVYAMGWYRQAPGKERELVAAINRSGTRTTYADSVKGRFSISRDNAKNTVYIQMNSLKPEDTAVYYCAALSTGSHWQNEYGYWGQGTQVTVSS,low polyreactivity
20,QVQLVESGGGLVQAGGSLRLSCAASGFIFTYYAMGWFRQAPGKERELVAVISWSGGTTYYADSVKGRFTISRDNAKNTVYLQMNSLKPEDTAVFYCNARSLAKLPRSSVRVEYDYWGQGTQVTLSS,low polyreactivity
21,QVQLVESGGGLVQAGGSLRLSCAASGFIFTYYAMGWYRQAPGKERELVAAISSRGGSTFYADSVKGRFTISRDNAKNTVYLQMNSLKPEDTAVYYCAADKWYAANQGYYYWGQGTQVTVSS,low polyreactivity
